This note sets out measurements from patent publication US8084213, “Selection” (Domantis Limited).

In the data set the target is Vh(DOM1h-10-27)-scArc-HA (Phage P22 / human Vh). In words: DNA co-captured on protein A and human TNF receptor, not BSA. Conditions: tags: N-terminal Vh dAb fusion, C-terminal HA; chain copies: 2 scArc per operator (inferred). On the procedure: The functional activity of the V_H(DOM1h-10-27)-scArc fusion protein can be assessed by PCR amplification of the DNA co-captured during the V_H-dependent immunoprecipitation of the in vitro translation reaction product. As in the case of $V_\kappa$-scArc fusion constructs, 1 µl of 1.7 nM template in 0.2 mg/ml tRNA is added to 25 µl EcoPro T7 in vitro translation mix (Novagen), supplemented with 0.75 µl of 100 mM oxidized glutathione (Sigma), and incubated at 25° C. for four hours. During the translation reaction the streptavidin-coated PCR tubes, cut from Strep Thermofast 96-well plates (Abgene), are first incubated at room temperature for three hours with 50 µl of at least 40 nM biotinylated target protein in PBS. The coating buffer is thereafter removed and any remaining free biotin-binding sites are blocked with a 15 min pulse of 50 µg/ml biotinylated BSA in PBS. The precoated wells are thereafter three times washed with PBS and then filled with 100 µl of binding buffer C+ (100 mM KCl, 20 mM Tris, 5 mM MgCl_2, 0.05% Tween 20, 0.05 mM EDTA, 1% BSA). Upon completion of the translation reaction the products are diluted in Buffer C+ and applied to the pre-coated and blocked PCR tubes, allowed to bind for 30 min at room temperature and washed 4 times with 150 µl of Buffer C+. […]

B1: Arc operator, one copy, on linear genetic element (dsDNA)
DNA 1: ATGATAGAAGCACTCTACTAT
DNA 2: ATAGTAGAGTGCTTCTATCAT
B1: the binding result is recorded as “binds”.
